{
  "source": "the DeepSol protein solubility set",
  "data": [
    {"assay": "soluble on expression in E. coli; label from the status in PepcDB or PDB records", "values": [
      {"sequence": "MSLTEEQLLFRIALTHVKGVGSVLARQLLSAMGSPEAIFSDRKELVQRLPKAPRRLLDAIFSPSVMEEARRKLDQALKAGLNMYFITDDNYPYRLKECVDAPILLYSKGNVDLSPRRVLSIVGTRNITAYGRTATERIVSGLAETIPDLLIVSGLAYGVDVAAHKAALDNGLPTVAVLAHGLDRIYPSGHRSIAMEMLRNGGLLTDYPMGTEPERFNFVGRNRIVAGLSDATLVIESAEKGGSLITAGLAFGYNREVLALPGRATDSRSAGCNALIRDQKAALVSSAQDVLTLLDWSSTIDAKPQTEGHHHHHH", "soluble on expression in E. coli": "soluble"},
      {"sequence": "MTAAPGTSMATPHVAGIAALLLQAHPSWTPDKVKTALIETADIVKPDEIADIAYGAGRVNAYKAINYDNYAKLVFTGYVANKGSQTHQFVISGASFVTATLYWDNANSDLDLYLYDPNGNQVDYSYTAYYGFEKVGYYNPTDGTWTIKVVSYSGSANYQVDVVSDGSLSQPGSSPSPQPEPTVDAKTFQGSVHLEHHHHHH", "soluble on expression in E. coli": "not soluble"},
      {"sequence": "MERHGSELQGEVVFTTTSTANNNVKRAVEYFEDDNQDDALTSTSSGNSTQKESSPFTDFDDVPPPPVAPETPAPAQNRRESASPERQFLDESHLGGIGSPLSQSTRLDETFIEEYSIELDTSGNSRNNISSAASPGPKSPFDDDFTDTAAPVAPPPAPTKAAEEYRRQPHQNPFDEEEEEESQFGGGTLSGRDPFDEDSGNSNENQLREKKLHKKEQLAHRLSSSSEEIVEASIHEDEPIVMAQIPEEKPKPKAIPAFDNAYDADFDNSPPLHHYSAVHLETGLSPLEEAQRALRANRARHKPSNVSLAEEAKLAARQRYSNASDIRREEEEEVVEEDPAVVVPVLRKDLEVEEAPKSVRPPRYRKSREIEEPVVVDRFVEEEVDEKEDIDAIFEKYRKVRKDIFEKNGVENLKNLNFFRTSVSADPKSHTPILMADEYKEPQKQVPAPVVVAQESPILKRRNSLVPSRISGRQSTRRSVTSVRSMRGKRKTRAIPEFFDLTRHQNIRLRAPATKKKRISLHRVEDTEAVVELLNGQKVEVACRSDVISRDVFSLIVQNMNINEHVFFGLSFLRDGEHYFIEDHQRLEKFAPSGWKSVARVGVKVPYVLHLRFKFYPQILDFIKTDVTMNELYLQCRRDVLEERIQPKRDAAFELAALALQAEFGNRPPPVITDYFDIQHYLPKKYSSFEDQSRLKNILAELHGHYAGTRISEAKHKYIQICQRHPDFGAHVHRVFRTKPTSAHGASPFDPDTGSSLWIGIMPRGISIYEQQGGAREVIAEHVWPQTQTLQFDKKRFVIVAVGAHDEQIESTFYTDHHSKSSYFVRFAASQHRWMMKMRQWKSTLRHENTIQAMPDVIVEGQTIPPAPIRQGLEESPPSTPLLASADQIFAKMSVSQEKPAANRPAELPPPAPSSKFAAQYDTVDEGIVCDSQAENFERVDSTDNGNVTPRGMQFDILLVKDPANGLGLTLVDGNLNGVPGVYVKLVADNGAGMKAIKPKWDILTPCDSTQIFASQNQIFPSVSAEMLASAGRKKSFTSSSGDLLNAPNRTNGQSRTPPAPRKAANRRQRAVSDFGAIGDALPTLDGDNLINIKAISGLHLDESDEEKGEYRLPTTSMYAFDRDDDLQASIKESKKPAPEPKSGELRKYRYARRSNLEIAEEIEEEAVESSDDDGQIDEGKRVIDVELDRNENGSLGVQIASLSGRVCIKQLTSEPAISHPDIRVGDVLLYVNGIAVEGKVHQEVVAMLRGGGDRVVLGVQRPPPAYSDQHHASSTSASAPLISVMLLKKPMATLGLSLAKRTMSDGIFIRNIAQDSAASSEGTLRVGDRLVSLDGEPVDGFTPATILEKLKLVQGPVQITVTREQTA", "soluble on expression in E. coli": "not soluble"},
      {"sequence": "MGSDKIHHHHHHVVKHPAWSRFGAEVRRLRVQSGYSQAQLARAIPLSQSMLSGIELGRKGAKRDHAEALDRVLNTGGRLVRLWDSLNSIPAHPSWFQNVLALERKAVEIREYQMVVLPGLLQTEDYARSLIRPAQPWANAEKVDELVHARMSRREILTAPDRPLCWFVVDQVVIDRVTGSPTVMKEQLTYLLNLIEDHTIRFQVFPQEIPLHPGLTGPIRIMSFDDRPTMAYVEHTLGGLLTDQQQEVRYCSAIFSALQSEALSSHASADYIRRRKDQL", "soluble on expression in E. coli": "not soluble"},
      {"sequence": "MGSDKIHHHHHHMQPPLTDKQFKHTIDYDSRLLPYKYYHTCVMDGIPDILFHWHNEFEINYVYGGTARYHIDYDYFNSQAGDIILIRPNAAHSIHPIEQRGHETDTLLFHLDMLGASQLDHTSMLYLQPLQTDVFKCILRIQPQDPGYAEIRQCLLTIFELVRHQPPYFELPLKSRLFDFFYLLYRYRYIVRKNTDDMYRKNEKLRLLIEHIQQHYAENLTIEQLAEQMGYTKTHFMTIFKQQTGTSCMEFIIQVRLRAATELLTNTLKPVLEIATEVGFNNLSNFNRQFKQYYHTTPSSYRKQLRKNRTYTNFDK", "soluble on expression in E. coli": "not soluble"},
      {"sequence": "MTDSQSTQMGRGRHAKRNKSTASVGSKKNRTQSTASGKFQPSDGFTTFIVAVSRLGKQGQEFTWHDLRKVYHKETQRQLTAEELNAIFSSKNLTKREIFELPKVKRFMTSMDGSMMCRFRLIADPQEVYDDDLPPLMSTSVETDVITEDTSSDHSQAVSPSSGNPIAISTDCDDKAAGPTSDLSKSDNSPSQRSLAQQSSMTDDEGWVSGKDVRSENSSPVEDKDEVDGSKMEMEDDVFEEDQRIAAESDQVDSAMVADVIIVEEAKVEKLFKAQEIVAPIVLTESIDAAFEAVIQSVSHADATLSMTQNASEEAKVHATPPLPAERKTMVSAELANGKPIKHLIEKFDAGVNFAEHKPKSIYAQVLEEIGGSAPRVDEVFSASKKEEHAETEVTNVIFRSTSTHSSIIANGKEQLAEFVAEQEARQKVTTPNPVKEETENAFCAKEQSSMSSLDREYFASKTKLNEDLFAELGVKDTDGFQLKTVDSNGSGPGSSEIITVIETPLKDDHRKRADSVESDADVPYSLCSEDEAEPMTMIDKSMKVSQSAEQLSPVKEEQKAKTVVVNVELDGNRADPTIKDRIAALQAIVSKQHVPIAKVDSVDDDVRILSRTEELQHMALEAKPSPQALGALRRRHVRFMRGCCVVQ", "soluble on expression in E. coli": "soluble"},
      {"sequence": "MNVEINGKSLELSFGFKFLREIDNRLGLKVEQASIGQGVSMLPVGLESGNPVVIGEVLIASTSHLKKQAITINNIDEALDEIAENIGLEEFGSDILTELGKRPMTRNLVEVVETEEKPAEALEHHHHHH", "soluble on expression in E. coli": "not soluble"},
      {"sequence": "MNTMLFSPYTIRGLTLKNRIVMSPMCMYSCDTKDGAVRTWHKIHYPARAVGQVGLIIVEATGVTPQGRISERDLGIWSDDHIAGLRELVGLVKEHGAAIGIQLAHAGRKSQVPGEIIAPSAVPFDDSSPTPKEMTKADIEETVQAFQNGARRAKEAGFDVIEIHAAHGYLINEFLSPLSNRRQDEYGGSPENRYRFLGEVIDAVREVWDGPLFVRISASDYHPDGLTAKDYVPYAKRMKEQGVDLVDVSSGAIVPARMNVYPGYQVPFAELIRREADIPTGAVGLITSGWQAEEILQNGRADLVFLGRELLRNPYWPYAAARELGAKISAPVQYERGWRF", "soluble on expression in E. coli": "soluble"},
      {"sequence": "NHINPVNPAEPALYLPTQYDVREFAEKTKNETVYVFTSVGEYWPLAWYLRDHRAYFITTGVEGRSFISGNYIVVNATNDMRLDKTNLEFVETMVVRCWTFWTTPELQRIPAFLAFREPLTDVSCMNFSVYRAI", "soluble on expression in E. coli": "not soluble"},
      {"sequence": "MGSDKIHHHHHHITPSISSKADNLIPRTNLEISNGQVFNESQIRLRGWGLNASGIKAIDIYVDGTWKKTLVKGDGFGLSRPDVKQAFPEYPDADYSGYDYYMYLPDGNHTLRVWAIGNDNSKVYSEANITVDTSNSKGTQLVNYARKFIGVPYVWGGDTPNGFDCSGLVMYCYAHFGVNLPHYTGDQVKYGTVVTDLQPGDLLFFGSTSDPYHVAIYSGNGYMIEAPKTGENVHETPVRSYSIAKRIF", "soluble on expression in E. coli": "not soluble"},
      {"sequence": "GMSEDHPLDRPVWNSLGGPQSELDVASGNLRRLDPAYGPFAAAAPGAEAGLASLLQGDADEIWLVEPEPVAPPPGTRVIRVAPLLQMIADGPVPSFDDPGIVALGETDVPEMTALALATEPGPWASGTWRYGQFYGVRIDGRLAAMAGERMRPAPNLAEVSGVCTWPEYRGRGLAARLIRKVIAGMAARGEVPYLHSYASNASAIRLYESLGFRARRAMTATLLGKST", "soluble on expression in E. coli": "soluble"},
      {"sequence": "MADIDNKEQSELDQDLEDVEEVEEEETGEETKIKARQLTVQMMQNPQILAALQERLDGLVDTPTGYIESLPKVVKRRVNALKNLQVKCAQIEAKFYEEVHDLERKYAVLYQPLFDKRFEIINAIYEPTEEECEWKPDEEDEVSEELKEKAKIEDEKKDEEKEDPKGIPEFWLTVFKNVDLLSDMVQEHDEPILKHLKDIKVKFSDAGQPMSFVLEFHFEPNDYFTNEVLTKTYRMRSEPDDSDPFSFDGPEIMGCTGCQIDWKKGKNVTLKTIKKKQKHKGRGTVRTVTKTVSNDSFFNFFAPPEVPENGDLDDDAEAILAADFEIGHFLRERIIPRSVLYFTGEAIEDDDDDYDEEGEEADEGYQLFEEVKSCSKLFQRWLQ", "soluble on expression in E. coli": "soluble"},
      {"sequence": "MHLDVLDLHNFYYRTPLGRVAQRAVRDQVQKLWPDAQGQTVAGFGFSVPLLRPYLEQARRLIALMPGPQGVMPWPVGMGNVSVLCEEGAWPLSTGMVDKLVMLHGLETSEHPSEVLSEAWRVLGPGGRALFIVPSRSGLWARRDGTPFGFGRPYSLNQLEAQLKRHDFTPERALAALFAPPLHQRFWLKTADFWETGGRRFAPWLVGGVLIVEASKQVYAPTRTGLKAAVSKPLRVLEGIPQPLPAPAGRTSDGSCGCPGGC", "soluble on expression in E. coli": "not soluble"},
      {"sequence": "ISGGSSISMMYKYCSRLPHDEFFQPKPEFQFKPVDEFGGTICRITLPANAPISEIESSLLPSTEAAKKDACLKAVHELHNLGVLNDFLLPDSKDEIEDELSD", "soluble on expression in E. coli": "soluble"},
      {"sequence": "MYSIEVRTHSALHVVKGAVVKVLGSEAKWTYSTYVKGNKGVLIVKFDRKPSDEEIREIERLANEKVKENAPIKIYELPREEAEKMFGEDMYDLFPVPEDVRILKVVVIEDWNVNACNKEHTKTTGEIGPIKIRKVRFRKSKGLLEIHFELLELENPSLEHHHHHH", "soluble on expression in E. coli": "soluble"},
      {"sequence": "MSLLNRLRAFRERGWREVDAPTYAQAWQRFGGSVATHPLVVEQLAEMAGIPVRYLGWESAGELVAAIPTWGRHLALSKDVLKRRGKKGLYDLGNAELILPVAGDARIALRHAGRYLSALHERNIVTLRPQTEQLAFARAPEDFSKKFRYNQRREVRLVEEAGGQVRQADSFAPAEFAAMYLELFQRRWGFPATGAERMAEVFERLRELLRGSVLLLNDQPIAVQVLYRAEAPGWLSVEYINGGVDPQTREFSPGSVLSYLNTQAAWEDARALGKPLRYSFGRADREYKDRWCHPSPVFQVEGHHHHHH", "soluble on expression in E. coli": "soluble"},
      {"sequence": "MRADELPSKEEIEMHKDSCKYFSNDTEEEETEDEEENGEVAHAKAVAEEFGKSSKSKNVSSSMELDDEVAEGLKELDMDNYDEEDDGIEIFSSGRGDLYYKSNEMDPYLKRNDDHDDDSDDDPPILPTDLVIVCAMTDDKEANRLDVYVSEDTSHGSPNMYNHHYRIIPAIPLCTAWLDCPLKGGERGNFLAVGSDGTPTIEIWDLDAWFDMLPCVQLGGQNKEGNYKQGSHTRSVLGLAWNKEFRNILASASADKKVKVWDVATGTCKITMEHHTKEVQAVAWNHYAPEVLLSGSFDQTVVLKDGRQPSHSGFKWSVMSDVESLAWDPHSEHSFVVSLEDGTVKGFDVRQASISASESNPSFTINGHDEAATSVSYNISAPNLLATGSKDRTVKLWDLSNNEPSCIATHNPNAGGLFFIAFSPDNPFLLAMGGVMGELKLWDTLSDTNVSSRYGSREVRP", "soluble on expression in E. coli": "soluble"},
      {"sequence": "MSKMLYRVELIITNKEGVRDPEGETIQRYVVSRFSDKIIETRAGKYLVFRVNSSSQQEATELVKKLADEMRLYNPIVHKIEIRANRIEDSSN", "soluble on expression in E. coli": "soluble"},
      {"sequence": "QKKIADRLMKFEEQLPEALDIIKRVLQAGQPITQAFGEVGREVSAPLGPEFLNTFNLLNYGYDLRLAIMQMSERTPTVSMLAFSSAVLLQKETGGNLVENIEKLSHILRARFKLARKIKTISAESRMS", "soluble on expression in E. coli": "not soluble"}
    ]}
  ]
}
